Tests used:
Rat BTC = target: T1, Rat BTC (rat, UniProt Q9JJM4 32-111); experiment: SPR (Biacore/ProteOn)
T1 sequence: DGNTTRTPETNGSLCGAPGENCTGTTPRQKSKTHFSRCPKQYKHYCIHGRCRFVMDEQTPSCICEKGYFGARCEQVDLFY

Human BTC [1] = target: T2, Human BTC (human, UniProt P35070 32-111); experiment: cell-based or functional assay
T2 sequence: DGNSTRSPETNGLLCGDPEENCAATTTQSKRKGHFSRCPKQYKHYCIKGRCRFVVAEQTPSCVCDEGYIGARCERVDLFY

[2] = target: T3, membrane-bound human BTC on 293F-hBTC cells (human, UniProt P35070 32-111); experiment: cell-based or functional assay
T3 sequence: T2 sequence

Human BTC [3] = target: T2, Human BTC; experiment: MSD-based inhibition of BTC binding to ErbB1
Human BTC [4] = target: T2, Human BTC; experiment: cell-based inhibition of BTC binding to ErbB1
Human BTC [5] = target: T2, Human BTC; experiment: cell-based inhibition of BTC binding to ErbB4
Human VEGF165 = target: T4, Human VEGF165 (human, UniProt P15692 27-191); experiment: competition ELISA: antibody pre-incubated with VEGF-biotin, added to coated VEGFR2
T4 construct: mature; biotinylated in the VEGFR2 ELISAs; also called human VEGF-A; VEGF-A
Protocol: The plates were then washed 3 times using 1λTBST. The plates were blocked in 2% BSA diluent (0.1% Tween 20/0.1% TirtonX100) overnight. After blocking, the plates were washed 3 times using TB ST and then the sample mixture was added at 20 μl/well. The sample mixture consisted a final fixed concentration of VEGF-biotin (in-house) at 400 pM and a 15 point 1:2 serial dilution of the antibody starting at 20 nM. The sample mixture was pre-incubated for 1 hour prior to adding to the plate and then incubated for another hour at room temperature on the plate. Afterwards, the plate was washed 3 times using TBST and 20 μl/well of Streptavidin-HRP diluted at 1:5000 was added for an incubation time of 1 hour. The plates were washed 3 times in TBST and then 20 μl/well of TMB substrate was added. TMB is a chromogen that yields a blue color when oxidized. TMB was incubated for 10 minutes until the signal saturated in the no antibody samples, and then 10 μl/well of 2N sulfuric acid was added which then changes the blue color to yellow and this now has a maximum absorbance at 450 nm.

Human BTC [6] = target: T2, Human BTC; experiment: inhibition of BTC binding to ErbB1; y axis MSD units, x axis Fab (pM); blocked partner ErbB1
[7] = target: T3, membrane-bound human BTC on 293F-hBTC …; experiment: flow cytometry on 293F cells with membrane-bound human BTC, anti-human Fab detection; y axis Percent Positive Binding, x axis Antibody concentration (nM)
Protocol: After washing the cells, the cells were dissociated using Versene at 37° C. The cells were washed with FACS buffer and plated at 100 μl in a 96 well plate using cells at 1×10⁶ cells/ml. Then 100 μl of a serial dilution of antibodies starting at 50 nM was used. The cells were incubated, washed and then treated with the secondary anti-human Fab-FITC antibody. The antibodies only bound to the cells expressing BTC. After which the cells were washed and analyzed on the Attune Flow Cytometry. All data analysis was carried out using Flow Jo software.
In FIG. 6A, Flow cytometry was used to assess the binding of NVS11 to membrane-bound BTC using an anti-human Fab antibody for detection.

Human BTC-avitag-biotin [8] = target: T5, Human BTC-avitag-biotin (human, UniProt P35070 32-111, biotin on the avitag); experiment: flow cytometry, BTC-ErbB1 Cell Binding Inhibition: antibody pre-incubated with 15 nM human BTC-avitag-biotin, HKB11 cells over-expressing human ErbB1; y axis Percent Inhibition
T5 construct: also called biotin-BTC; soluble human BTC-avitag-biotin
T5 sequence: T2 sequence
Protocol: (§1) HKB11 over-expressing either ErbB1 or ErbB4 cells were plated 1×10⁵ cells/well. Cells were washed once with FACS buffer by spun down at 1200 rpm for 5 minutes and supernatant removed. Next, the Fab sample dilutions and BTC were prepared in FACS buffer. Human BTC-avitag-biotin was diluted to a fixed concentration of 15 nM. The test Fab samples were prepared at a starting concentration of 40 nM and titrated for 9 points at a serial dilution of 1:2. Both biotin-BTC and the test Fab samples are incubated for 30 minutes at room temperature. The pre-incubated samples were then added to the cell plate at 100 μl per well in duplicate and incubated for 1 hour on ice. The plate was then washed once in FACS buffer and spun down at 1200 rpm for 5 minutes and supernatant removed. […]
(§2) Measurements were performed on Attune Flow Cytometry machine. Data were analysed using the Flow Jo software. The live cell populations analysed were gated in forward and side scattering (FSC-A/SSC-A dot plot). The interval gate was established on the control histogram, which was obtained with sample incubated in streptavidin-Alexa Fluor488 only, and subsequently, determined percent of positive binding events of cells carrying membrane-bound receptor ErbB1 or ErbB4 and biotin-BTC. The median of fluorescence intensity (MFI) value was also derived for the live cell population. […]

Human BTC-avitag-biotin [9] = target: T5, Human BTC-avitag-biotin; experiment: flow cytometry, BTC-ErbB4 Cell Binding Inhibition: antibody pre-incubated with 15 nM human BTC-avitag-biotin, HKB11 cells over-expressing human ErbB4; y axis Percent Inhibition
Protocol: as §1, §2

T4 sequence (P15692 other isoform, or with tags, fused parts or gaps): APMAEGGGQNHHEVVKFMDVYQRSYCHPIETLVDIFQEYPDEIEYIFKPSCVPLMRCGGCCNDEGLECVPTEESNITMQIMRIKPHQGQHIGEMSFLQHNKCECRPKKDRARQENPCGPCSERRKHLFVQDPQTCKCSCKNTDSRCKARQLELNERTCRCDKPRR

- Kd (Rat BTC): 0.007 nM
- A431 pERK (IC50 in nM) (Human BTC [1]): 0.25 nM
- ADR/Res pErbB3 (IC50 in nM) (Human BTC [1]): 5.7 nM
- inhibition (Human BTC [1]): 99.7%
- Neutralization of juxtacrine signaling [2]: 89%
- MSD-based binding inhibition BTC/ErbB1 (Human BTC [3]): > 90%
- Cell-based binding inhibition BTC/ErbB1 (Human BTC [4]): > 90%
- Cell-based binding inhibition BTC/ErbB4 (Human BTC [5]): > 90%
- binding result (Human VEGF165): no binding (tested: 20000 pM)
- IC50 (Human BTC [6]): 0.301 nM
- EC50 [7]: 0.133 nM
- IC50 (Human BTC-avitag-biotin [8]): 2.5 nM
- IC50 (Human BTC-avitag-biotin [9]): 7.4 nM
B1: NVS1 (Fab, V domains shown)
VH: QVQLVQSGAEVKKPGSSVKVSCKASGGTFSSYAISWVRQAPGQGLEWMGGIVPWMGEAVYAQKFQGRVTITADESTSTAYMELSSLRSEDTAVYYCARSSSTYGIHAFDYWGQGTLVTVSS
VL: DIQMTQSPSSLSASVGDRVTITCRASQSISNFLNWYQQKPGKAPKLLIYAASNLQSGVPSRFSGSGSGTDFTLTISSLQPEDFATYYCQQYDDFPMTFGQGTKVEIKR
notes: also called Fab NVS1; NVS1 Fab

From patent publication US20220025032A1 (Novartis, published 2022)
